According to article PMC314469, “Protein Interaction Networks by Proteome Peptide Scanning” (PLoS Biology, 2004):

How the values were obtained:
[1] = target: endophilin SH3 (SH3G2_HUMAN), Q99962; experiment: SPOT array
[2] = target: T1, amphyphisin SH3 (AMPH_HUMAN), P49418; experiment: SPOT array
T1 chain: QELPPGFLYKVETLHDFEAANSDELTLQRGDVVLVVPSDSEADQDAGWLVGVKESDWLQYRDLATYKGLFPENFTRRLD

Binder | normalised SPOT signal, Boehringer light units (BLU); mean over the file's lines of this peptide [1] | normalised SPOT signal, Boehringer light units (BLU); mean over the file's lines of this peptide [2]
PGPSPARPPAKPPE [Q14184 97-111] | 194 | 19.1
PGPGPRRPPWEGAD [Q96Q04 1263-1277] | 523 | 25
PGPPPGRPPGPPPG [Q9Y2W2 459-473] | 924 | 33.4
PGSLPSKPPPGPVP [Q8TEP0 205-219] | 22.8 | 48.3
PKRGPRRPKYSPPR [Q14669 1006-1019] | 83.3 | 12.1
PLLPPKRPLSSSHE [Q9H6X0 119-132] | 10400 | 680
PGTGPWRPGRQRGA [Q9GZW5 233-246] | 156 | 656
PHHELRRPVLQRQT [Q9H6E1 62-75] | 4.1 | 30.1
ARRPPPRPHRRAET [Q9NQE0 211-224] | 2500 | 2030
PKISPQKPPRKDME [AAM49716 571-585] | 487 | 2910
PLRHFKRPAYASSS [Q14123 658-671] | 9.5 | 28.7
PLPRFPRPPRALPA [P56730 61-74] | 3490 | 1910
PGSGPPRPSRRLLD [O15427 206-219] | 2310 | 748
PKDYPLRPPKMKFI [Q99462 62-75] | 1880 | 81.5
PGQGPQRPRRPAKD [Q12984 75-88] | 5880 | 4690
PGTSPRRPSVVPSR [Q96D64 48-61] | 587 | 35.3
PHKRPRRPHQIADL [Q96FN8 185-198] | 58.2 | 75.3
PLPAPRRPKVNSIL [Q9H3X8 431-444] | 744 | 4680
PKTYLRRPEASSPA [Q92932 113-126] | 60.7 | 21.6
PGVEPKRPSRPINL [Q9UN16 222-235] | 227 | 8660
PHSAPLRPPRELHA [Q9NVV2 32-45] | 13000 | 9310

Binder | normalised SPOT signal, Boehringer light units (BLU); mean over the file's lines of this peptide [1] | normalised SPOT signal, Boehringer light units (BLU); mean over the file's lines of this peptide [2]
PISVLRRPGANHEG [Q9Y2Z7 47-60] | 90.8 | 46.1
PKTPPRRPVPVADS [Q9HA84 52-65] | 61.3 | 314
PKSVLKRPVTSEEL [Q9HA07 306-319] | 48.9 | 37.6
PGPVPPRPPAAEPP [Q9H3S7 1093-1107] | 331 | 50.3
ARVPLGRPRRRPRA [O60331 5-18] | 200 | 421
PGVPPARPPPLTKV [Q9HCH0 869-883] | 10000 | 807
PLMHPARPFRVSNH [O60543 29-42] | 15800 | 8020
PLLHLTRPSRLEPG [P52849 207-220] | 1220 | 1780
PLRLPPRPPGPRLA [O95822 14-28] | 18500 | 4940
ARSYLRRPAVVYIG [O43188 617-630] | 60.1 | 35.3
PGTPPRRPASPSAL [O75833 33-46] | 3750 | 223
PLISFPRPVKTTWL [Q9P2D6 185-198] | 172 | 201
PGRRPGRPPKFIRL [Q9NQV6 314-328] | 15700 | 504
PGRAPRRPLLEGGG [Q9H6A9 285-298] | 711 | 44.4
PGPSLRRPSRELDA [Q9NTN9 19-32] | 226 | 442
PHADPGRPERLVFK [Q9Y5X7 158-171] | 8.4 | 169
PKERLRRPETSGIS [O75698 245-258] | 32.6 | 38.7
PGQGLRRPARPGPA [P78365 80-93] | 1310 | 853
PKKPPVKPPTEPIG [Q9ULW0 418-432] | 64.2 | 37.6
PIQNIKRPYPGEVS [Q9H7J0 315-328] | 110 | 48.7
ASAPPQRPPSGPEG [Q96LW7 145-159] | 435 | 21.2
